Earlier results on one substance are cited in publication PMC12302472.

The target of this series is ATOX1 (Homo sapiens) (UniProt O00244). Nature of the series: SPR. Background: Surface plasmon resonance follows binding to a sensor surface in real time, without labels.
Sequence of UniProt O00244 (O00244 whole entry): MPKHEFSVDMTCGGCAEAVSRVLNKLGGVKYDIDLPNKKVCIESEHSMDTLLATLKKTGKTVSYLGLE

For the substance MEMO1 (from UniProt Q9Y316), the equilibrium dissociation constant (Kd) is 210 nM.

As a reminder, the Kd is the concentration at which binding is half-saturated.
